Biological target: T1, human amyloid beta (Aβ42), T cell epitope peptide on H2-IAb (mouse)
T1 peptide: KLVFFAEDVGSNKGA
Assay: multimer staining

- binding result: recognises
B1: Aβ-Th1 TCR (TCR, V domains shown)
Valpha: QQQVRQSPQSLTVWEGETAILNCSYENSAFDYFPWYQQFPGEGPALLISILSVSNKKEDGRFTIFFNKREKKLSLHIADSQPGDSATYFCAGGDYANKMIFGLGTILRVRP
Vbeta: DPKIIQKPKYLVAVTGSEKILICEQYLGHNAMYWYRQSAKKPLEFMFSYSYQKLMDNQTASSRFQPQSSKKNHLDLQITALKPDDSATYFCASSQDRSYNSPLYFAAGTRLTVT

Reference: patent publication US20260158142A1 (published 2026)
